How the values were obtained:
Assay type in all cases: biochemical, Homo sapiens
Settings in all cases: PAPS
[1] = substrate: Oc1cccc2ccccc12; assay: radiolabeled sulfonation assay, Km
[2] = substrate: CC(C)(c1ccc(O)cc1)c1ccc(O)cc1; assay: purified protein
[3] = substrate: O=c1c(-c2ccc(O)cc2)coc2cc(O)cc(O)c12; assay: purified protein
[4] = substrate: O=c1c(-c2ccc(O)cc2)coc2cc(O)ccc12; assay: purified protein
[5] = substrate: O=c1cc(-c2ccc(O)cc2)oc2cc(O)cc(O)c12; assay: purified protein
[6] = substrate: O=c1cc(-c2ccc(O)cc2)oc2ccc(O)cc12; assay: purified protein
[7] = substrate: O=c1cc(-c2ccccc2)oc2cc(O)cc(O)c12; assay: purified protein

B1: human cytosolic sulfotransferase 1C4 (hSULT1C4) (Homo sapiens) (protein)
chain: MALHDMEDFTFDGTKRLSVNYVKGILQPTDTCDIWDKIWNFQAKPDDLLISTYPKAGTTWTQEIVELIQNEGDVEKSKRAPTHQRFPFLEMKIPSLGSGLEQAHAMPSPRILKTHLPFHLLPPSLLEKNCKIIYVARNPKDNMVSYYHFQRMNKALPAPGTWEEYFETFLAGKVCWGSWHEHVKGWWEAKDKHRILYLFYEDMKKNPKHEIQKLAEFIGKKLDDKVLDKIVHYTSFDVMKQNPMANYSSIPAEIMDHSISPFMRKGAVGDWKKHFTVAQNERFDEDYKKKMTDTRLTFHFQF
Km [1]: 1.1 ± 0.2 µM | Km [2]: 32.8 ± 3.2 µM | Km [3]: 3.3 ± 0.3 µM | Km [4]: 10.5 ± 1.1 µM | Km [5]: 1.7 ± 1.0 µM | Km [6]: 10.1 ± 2.1 µM | Km [7]: 0.9 ± 0.4 µM

— publication PMC5608031
